The target in the assay is LRP-1 (Homo sapiens, UniProt Q07954). The assay can be described thus: ELISA.
LRP-1, sequence (Q07954 20-4544): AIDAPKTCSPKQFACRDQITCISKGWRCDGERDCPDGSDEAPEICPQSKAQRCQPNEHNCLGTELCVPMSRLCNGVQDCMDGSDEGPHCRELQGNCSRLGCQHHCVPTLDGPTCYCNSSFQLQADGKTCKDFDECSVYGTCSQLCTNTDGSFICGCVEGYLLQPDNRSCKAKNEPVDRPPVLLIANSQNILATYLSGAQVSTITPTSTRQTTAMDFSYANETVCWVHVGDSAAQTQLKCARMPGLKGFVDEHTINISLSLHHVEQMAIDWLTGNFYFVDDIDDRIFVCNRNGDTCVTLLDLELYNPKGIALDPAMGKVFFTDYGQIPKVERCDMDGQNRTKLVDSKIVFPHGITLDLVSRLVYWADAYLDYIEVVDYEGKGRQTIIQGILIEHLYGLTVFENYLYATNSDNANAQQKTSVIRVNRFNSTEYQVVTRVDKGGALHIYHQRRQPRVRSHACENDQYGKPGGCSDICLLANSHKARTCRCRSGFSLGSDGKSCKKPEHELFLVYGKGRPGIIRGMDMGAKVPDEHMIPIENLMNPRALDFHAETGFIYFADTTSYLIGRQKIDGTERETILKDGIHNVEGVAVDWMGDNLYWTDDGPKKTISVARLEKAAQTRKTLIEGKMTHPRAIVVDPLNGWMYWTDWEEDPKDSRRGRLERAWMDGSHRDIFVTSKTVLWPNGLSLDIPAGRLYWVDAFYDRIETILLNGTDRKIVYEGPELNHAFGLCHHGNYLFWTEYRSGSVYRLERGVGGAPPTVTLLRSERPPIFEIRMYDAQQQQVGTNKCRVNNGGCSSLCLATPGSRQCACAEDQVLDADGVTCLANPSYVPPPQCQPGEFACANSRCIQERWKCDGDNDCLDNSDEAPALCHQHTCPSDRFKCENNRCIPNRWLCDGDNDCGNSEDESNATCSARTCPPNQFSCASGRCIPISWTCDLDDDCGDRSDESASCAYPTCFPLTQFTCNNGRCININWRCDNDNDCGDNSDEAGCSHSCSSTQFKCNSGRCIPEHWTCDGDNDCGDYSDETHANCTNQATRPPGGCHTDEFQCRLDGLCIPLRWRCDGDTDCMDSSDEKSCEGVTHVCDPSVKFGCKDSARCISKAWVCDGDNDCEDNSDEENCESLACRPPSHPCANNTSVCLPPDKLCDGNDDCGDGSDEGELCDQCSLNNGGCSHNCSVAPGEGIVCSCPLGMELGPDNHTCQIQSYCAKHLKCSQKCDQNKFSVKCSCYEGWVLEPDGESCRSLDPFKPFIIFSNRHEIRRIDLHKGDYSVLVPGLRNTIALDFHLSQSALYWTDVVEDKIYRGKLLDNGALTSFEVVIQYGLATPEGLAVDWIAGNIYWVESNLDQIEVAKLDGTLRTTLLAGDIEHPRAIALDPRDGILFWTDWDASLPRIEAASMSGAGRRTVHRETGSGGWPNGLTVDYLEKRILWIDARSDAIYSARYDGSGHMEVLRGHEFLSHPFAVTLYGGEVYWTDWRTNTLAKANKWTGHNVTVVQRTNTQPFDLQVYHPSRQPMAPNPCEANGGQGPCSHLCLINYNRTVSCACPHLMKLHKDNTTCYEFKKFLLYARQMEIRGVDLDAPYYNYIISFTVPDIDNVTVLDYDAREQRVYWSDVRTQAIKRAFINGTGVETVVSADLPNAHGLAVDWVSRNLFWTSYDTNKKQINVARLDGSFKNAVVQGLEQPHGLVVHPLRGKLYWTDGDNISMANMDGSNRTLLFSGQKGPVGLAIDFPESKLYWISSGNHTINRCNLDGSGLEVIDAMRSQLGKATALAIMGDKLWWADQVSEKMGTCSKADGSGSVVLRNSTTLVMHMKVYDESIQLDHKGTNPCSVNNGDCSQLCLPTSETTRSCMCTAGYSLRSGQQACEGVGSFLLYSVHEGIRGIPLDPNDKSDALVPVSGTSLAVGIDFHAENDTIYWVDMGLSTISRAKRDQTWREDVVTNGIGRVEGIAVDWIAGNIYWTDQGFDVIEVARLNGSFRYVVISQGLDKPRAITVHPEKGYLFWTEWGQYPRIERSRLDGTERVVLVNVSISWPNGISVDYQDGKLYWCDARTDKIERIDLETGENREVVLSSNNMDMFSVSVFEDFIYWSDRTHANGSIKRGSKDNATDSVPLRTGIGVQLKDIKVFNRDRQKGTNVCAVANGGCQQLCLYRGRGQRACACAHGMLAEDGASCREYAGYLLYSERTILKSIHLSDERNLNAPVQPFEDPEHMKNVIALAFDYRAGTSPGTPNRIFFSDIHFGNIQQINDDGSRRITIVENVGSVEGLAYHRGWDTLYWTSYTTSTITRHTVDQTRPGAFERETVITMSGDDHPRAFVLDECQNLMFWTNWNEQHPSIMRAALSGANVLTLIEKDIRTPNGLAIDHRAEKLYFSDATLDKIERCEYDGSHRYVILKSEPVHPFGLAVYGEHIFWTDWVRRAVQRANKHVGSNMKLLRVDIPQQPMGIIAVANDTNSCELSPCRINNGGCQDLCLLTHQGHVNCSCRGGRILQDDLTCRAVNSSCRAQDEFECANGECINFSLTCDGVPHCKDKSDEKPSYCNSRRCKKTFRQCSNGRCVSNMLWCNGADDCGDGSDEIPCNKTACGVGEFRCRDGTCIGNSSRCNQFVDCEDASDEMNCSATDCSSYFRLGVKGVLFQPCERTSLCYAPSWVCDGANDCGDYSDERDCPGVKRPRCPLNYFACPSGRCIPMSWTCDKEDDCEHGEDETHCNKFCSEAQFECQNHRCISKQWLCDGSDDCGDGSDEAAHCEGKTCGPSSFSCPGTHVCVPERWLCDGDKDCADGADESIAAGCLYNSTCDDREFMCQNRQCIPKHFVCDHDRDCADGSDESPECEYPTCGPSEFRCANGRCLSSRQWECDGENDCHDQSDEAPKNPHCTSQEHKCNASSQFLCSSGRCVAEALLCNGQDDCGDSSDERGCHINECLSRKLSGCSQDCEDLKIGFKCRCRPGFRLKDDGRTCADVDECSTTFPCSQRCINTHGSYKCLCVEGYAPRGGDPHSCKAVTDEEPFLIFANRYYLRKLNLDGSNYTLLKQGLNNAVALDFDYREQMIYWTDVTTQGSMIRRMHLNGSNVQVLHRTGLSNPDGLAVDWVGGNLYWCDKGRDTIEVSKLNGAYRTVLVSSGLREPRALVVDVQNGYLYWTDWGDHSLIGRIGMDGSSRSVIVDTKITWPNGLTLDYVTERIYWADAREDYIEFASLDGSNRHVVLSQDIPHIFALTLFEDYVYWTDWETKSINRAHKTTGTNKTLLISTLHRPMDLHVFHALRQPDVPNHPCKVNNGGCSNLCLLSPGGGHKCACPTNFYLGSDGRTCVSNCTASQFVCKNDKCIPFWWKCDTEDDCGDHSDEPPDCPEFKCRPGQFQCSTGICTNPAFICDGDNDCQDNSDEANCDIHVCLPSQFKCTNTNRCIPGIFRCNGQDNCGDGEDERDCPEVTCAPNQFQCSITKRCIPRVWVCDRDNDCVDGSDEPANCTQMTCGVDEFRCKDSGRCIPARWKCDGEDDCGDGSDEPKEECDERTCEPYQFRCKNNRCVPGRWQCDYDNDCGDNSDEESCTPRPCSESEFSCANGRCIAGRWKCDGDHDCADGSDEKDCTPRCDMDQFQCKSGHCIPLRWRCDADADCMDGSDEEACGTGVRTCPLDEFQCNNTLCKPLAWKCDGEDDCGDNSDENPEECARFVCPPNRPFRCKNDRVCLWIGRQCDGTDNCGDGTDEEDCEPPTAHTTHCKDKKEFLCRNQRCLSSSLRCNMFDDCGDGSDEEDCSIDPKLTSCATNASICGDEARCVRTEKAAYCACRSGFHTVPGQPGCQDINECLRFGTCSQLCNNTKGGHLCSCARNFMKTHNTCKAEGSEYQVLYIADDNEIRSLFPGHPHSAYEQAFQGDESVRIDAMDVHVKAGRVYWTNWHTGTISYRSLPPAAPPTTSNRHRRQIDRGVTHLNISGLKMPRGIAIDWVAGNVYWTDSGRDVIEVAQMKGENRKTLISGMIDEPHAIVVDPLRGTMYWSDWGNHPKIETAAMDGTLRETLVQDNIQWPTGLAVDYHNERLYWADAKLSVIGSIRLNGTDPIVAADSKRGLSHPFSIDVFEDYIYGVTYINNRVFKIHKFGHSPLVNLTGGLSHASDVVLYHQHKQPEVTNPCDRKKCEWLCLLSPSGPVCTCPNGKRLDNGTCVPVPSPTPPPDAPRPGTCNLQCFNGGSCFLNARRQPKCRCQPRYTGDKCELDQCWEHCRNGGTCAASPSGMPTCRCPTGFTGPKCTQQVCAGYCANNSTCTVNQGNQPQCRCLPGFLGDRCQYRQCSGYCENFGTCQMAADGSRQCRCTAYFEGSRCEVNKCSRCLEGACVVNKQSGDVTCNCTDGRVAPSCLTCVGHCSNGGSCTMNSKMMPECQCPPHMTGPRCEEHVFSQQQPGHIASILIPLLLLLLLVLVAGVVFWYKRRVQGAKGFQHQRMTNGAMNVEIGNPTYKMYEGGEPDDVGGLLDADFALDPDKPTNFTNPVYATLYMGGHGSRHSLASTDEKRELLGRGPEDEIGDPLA

B1: TIMP-1 (protein)
chain: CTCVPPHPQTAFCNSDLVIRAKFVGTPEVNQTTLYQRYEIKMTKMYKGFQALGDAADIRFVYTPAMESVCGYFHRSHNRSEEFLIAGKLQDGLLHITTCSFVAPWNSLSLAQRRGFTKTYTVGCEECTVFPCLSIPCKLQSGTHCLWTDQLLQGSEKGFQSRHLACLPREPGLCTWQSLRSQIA
Molecule B1 yielded a Kd of 16 nM. That is a double-digit nanomolar value.

Source of the values: PMC6168507 (2018).
